Experimental data published in publication PMC10682670.

Tests used:
[1] = biological target: CMP-Ang1 fusion protein (encoded by mRNA-59) (human); assay: non-reducing PAGE with immunoblot; concentrated serum-free supernatant of mRNA-transfected HeLa cells, non-reducing PAGE, Western blot with Ang1-specific antibody
[2] = biological target: COMP-Ang1 fusion protein (encoded by mRNA-76), secreted by HeLa cells (not stated ('humanized' fusion protein) | human); assay: as above

| stoichiometry N [1] | stoichiometry N [2] | Substance |
| --- | --- | --- |
| 2 | – | CMP-Ang1 fusion protein (encoded by mRNA-59) (ligand) |
| – | 5 | COMP-Ang1 fusion protein (encoded by mRNA-76), secreted by HeLa cells (ligand) |
